One molecule from patent US20200330548A1 (SYNERGY PHARMACEUTICALS, published 2020) can be followed below.

For assay [1], the target named is T1, guanylate cyclase-C (GC-C) on rat jejunum tissue (rat, UniProt P23897 23-1072).
T1 sequence (looked up): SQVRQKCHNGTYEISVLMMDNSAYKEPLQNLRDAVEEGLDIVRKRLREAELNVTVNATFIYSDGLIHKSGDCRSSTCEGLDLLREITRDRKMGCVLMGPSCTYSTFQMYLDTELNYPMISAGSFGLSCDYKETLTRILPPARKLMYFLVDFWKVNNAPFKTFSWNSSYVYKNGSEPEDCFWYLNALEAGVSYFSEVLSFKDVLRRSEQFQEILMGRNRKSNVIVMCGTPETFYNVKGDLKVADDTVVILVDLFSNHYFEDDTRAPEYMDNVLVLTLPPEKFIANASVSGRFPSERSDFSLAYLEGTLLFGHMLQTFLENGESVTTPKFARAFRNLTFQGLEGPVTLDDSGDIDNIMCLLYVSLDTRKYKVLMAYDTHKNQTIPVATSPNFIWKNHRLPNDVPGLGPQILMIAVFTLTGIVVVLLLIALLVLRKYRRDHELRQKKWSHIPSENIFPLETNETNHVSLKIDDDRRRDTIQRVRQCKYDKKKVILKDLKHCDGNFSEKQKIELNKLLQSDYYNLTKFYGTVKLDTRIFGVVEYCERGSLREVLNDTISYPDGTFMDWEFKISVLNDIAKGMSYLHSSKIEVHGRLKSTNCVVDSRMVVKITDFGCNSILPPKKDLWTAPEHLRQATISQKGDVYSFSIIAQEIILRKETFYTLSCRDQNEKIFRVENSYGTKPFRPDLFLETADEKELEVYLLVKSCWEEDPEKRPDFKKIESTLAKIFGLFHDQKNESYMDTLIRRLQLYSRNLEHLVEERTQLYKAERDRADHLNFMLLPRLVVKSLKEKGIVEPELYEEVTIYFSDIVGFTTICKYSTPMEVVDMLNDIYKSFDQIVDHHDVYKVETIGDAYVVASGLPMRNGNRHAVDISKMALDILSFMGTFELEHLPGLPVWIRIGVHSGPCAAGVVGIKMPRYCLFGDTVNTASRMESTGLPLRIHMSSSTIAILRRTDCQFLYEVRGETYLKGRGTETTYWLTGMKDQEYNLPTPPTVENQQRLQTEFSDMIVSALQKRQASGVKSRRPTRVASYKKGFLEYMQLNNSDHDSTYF
The assay is described as follows: cell-based or functional assay.

For assay [2], the target named is guanylate cyclase-C (GC-C) on T84 cells (human, UniProt P25092 24-1073). Briefly: cell-based or functional assay.

Bridge positions count the residues as written; N and C are the ends. Square brackets hold non-standard residues; d marks the D form. Ends that are not written are not given here.

Sequence of guanylate cyclase-C (GC-C) on T84 cells (P25092 24-1073): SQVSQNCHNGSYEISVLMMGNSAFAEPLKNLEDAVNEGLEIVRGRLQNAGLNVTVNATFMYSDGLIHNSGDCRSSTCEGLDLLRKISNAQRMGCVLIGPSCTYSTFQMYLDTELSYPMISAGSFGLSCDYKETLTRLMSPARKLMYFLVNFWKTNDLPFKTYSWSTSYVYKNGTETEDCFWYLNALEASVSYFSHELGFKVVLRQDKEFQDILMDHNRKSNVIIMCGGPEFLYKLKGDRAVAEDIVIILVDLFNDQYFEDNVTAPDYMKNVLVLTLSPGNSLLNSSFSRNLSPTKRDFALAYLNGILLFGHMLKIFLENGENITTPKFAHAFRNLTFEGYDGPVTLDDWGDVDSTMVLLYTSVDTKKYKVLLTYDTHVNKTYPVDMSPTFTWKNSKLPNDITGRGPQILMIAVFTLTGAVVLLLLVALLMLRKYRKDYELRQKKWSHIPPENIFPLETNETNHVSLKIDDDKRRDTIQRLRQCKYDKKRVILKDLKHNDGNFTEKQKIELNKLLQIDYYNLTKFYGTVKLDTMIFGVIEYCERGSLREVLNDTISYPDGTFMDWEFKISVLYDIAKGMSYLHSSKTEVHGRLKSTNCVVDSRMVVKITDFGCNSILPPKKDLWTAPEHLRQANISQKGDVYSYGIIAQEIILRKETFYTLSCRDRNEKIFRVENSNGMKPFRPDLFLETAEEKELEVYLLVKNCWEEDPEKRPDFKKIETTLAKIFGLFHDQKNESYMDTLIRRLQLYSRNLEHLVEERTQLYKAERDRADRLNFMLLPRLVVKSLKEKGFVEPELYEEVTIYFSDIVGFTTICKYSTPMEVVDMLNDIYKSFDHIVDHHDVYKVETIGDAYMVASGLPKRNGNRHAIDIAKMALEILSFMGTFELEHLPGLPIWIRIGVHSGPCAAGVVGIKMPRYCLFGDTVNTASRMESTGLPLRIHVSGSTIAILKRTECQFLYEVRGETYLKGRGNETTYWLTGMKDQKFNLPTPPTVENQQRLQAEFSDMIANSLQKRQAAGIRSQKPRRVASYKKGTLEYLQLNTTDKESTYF

On to [dN]DECELCVNVACTGC[dL] (disulfide 4-12, 7-15) [SP-333], for which the “short-circuit current (Isc, chloride current) across rat jejunum tissue, Ussing chamber; EC50” value in assay [1] worked out at 299 nM. Also, in assay [2], the “short-circuit current (Isc, chloride current) across T84 cells monolayer, Ussing chamber; EC50” value was 169 nM.
